Measured values as given in patent US20160209425A1, “USE OF DECTIN-1 ACTIVATORS FOR TREATMENT OF LIVER DISORDERS” (NEW YORK UNIVERSITY, priority 2015, published 2016).
Entries after “also recorded” stand apart in the source; their conditions may differ.

Assays:
[1] = tested on: HSC; test: LPS-stimulated hepatic stellate cells in vitro; assay type: cell-based, mouse; details: LPS-stimulated Dectin-1−/− HSC, 24 h; FIG. 14D
Description: Murine hepatic NPC were collected as previously (Connolly et al., 2009, The Journal of clinical investigation 119, 3213-3225). Briefly, the portal vein was cannulated and infused with 1% Collagenase IV (Sigma). The liver was then removed, minced, and filtered to obtain single cell suspensions. Hepatocytes were excluded with serial low speed (400 RPM) centrifugation followed by high speed (2000 RPM) centrifugation to isolate the NPC, which were then further enriched over a 40% Optiprep (Sigma) gradient. […] In vitro proliferation was measured using the XTT cell proliferation kit (Roche). PKC activity was measured using a PKC Kinase Activity Assay Kit (Abcam). […]
For Western blotting, total protein was isolated from 75 mg liver tissue by homogenization in RIPA buffer with Complete Protease Inhibitor cocktail (Roche). […] The presence of the co-immunoprecipitated proteins were determined by western blotting.

[2] = tested on: liver regeneration; test: 70% partial hepatectomy, liver regeneration; assay type: in vivo, mouse; details: TCRδ−/− mice, 36 h, FIG. 29C
From the text: C57BL/6, TCRδ^−/−, and C57BL/6-Trdc^tm1Mal mice were purchased from Jackson (Bar Harbor, Me.). For selected experiments, CD45.1 mice and C57BL/6 controls were purchased from Taconic (Germantown, N.Y.). Dectin-1^−/− mice were a gift from Gordon Brown (University of Aberdeen). Bone marrow chimeric animals were created by irradiating mice (9 Gy) followed by i.v. bone marrow transfer (10^7 cells) as described by us (Ochi et al., The Journal of clinical investigation 2012; 122:4118-29). The 70% partial hepatectomy procedure entailed ligation and removal of the left and median lobes of the liver in 8-12 week-old mice (Mitchell et al., Nat Protoc 2008; 3:1167-70). The sham operation consisted of a midline laparotomy alone. All animal procedures were approved by NYU School of Medicine IACUC.
In selected experiments, NK1.1^+ cells were depleted using an mAb (PK136, 150 μg, eBiosciences, San Diego, Calif.). […]
Liver tissues were fixed in formaldehyde, embedded in paraffin, and stained for B220 (RA3-6B2; BD), BrdU (Bu20a; Sigma), CCL20 (polyclonal, Abcam), CD45 (30-F11; BD), CD68 (KP1; Abcam), Ki67 (16A8; Biolegend), MPO (Rabbit polyclonal; LS Biosciences, Seattle, Wash.), PCNA (PC10; Biolegend). […] Data was quantified by examining 10 high-power fields (HPFs) per slide. […]

[3] = tested on: LPS-induced endotoxemia; test: LPS-induced endotoxemia / sepsis in mice; assay type: in vivo, mouse; details: WT mice co-administered LPS and M-CSF; FIGS. 7G, 7H
Description: C57BL/6 and CD45.1 mice were purchased from Jackson and bred in house. Dectin-1^−/− mice were a gift from Gordon Brown (University of Aberdeen). Mincle^−/− mice were obtained from the MMRRC. Age-matched 6-8 week old mice were used in all experiments. To induce hepatic fibrosis, female mice were treated with thrice weekly injections of TAA (250 mg/kg; Sigma) for 12 weeks as described (Connolly et al., 2009, The Journal of clinical investigation 119, 3213-3225). Alternatively, mice received bi-weekly injections of CCl4 (0.5 ml/kg; Sigma) for the same duration. To induce HCC, male mice were injected i.p. at 2 weeks of age with a single dose of DEN (15 mg/kg, Sigma) followed by bi-weekly injections of CCl4 (0.2 ml/kg) starting at 8 weeks of age ((Dapito et al., 2012, Cancer cell 21, 504-516). Mice were sacrificed 24 weeks later. To induce sepsis, male mice were injected i.p. with a single dose of LPS (15 mg/kg; Sigma). Rectal core body temperature was determined using a MicroTherma 2 temperature probe (Thermoworks). In selected experiments, MyD88 inhibitory peptide (1 mg/kg; Novus), an α-M-CSF neutralizing antibody (2 mg/kg; Clone 5A1, BioXCell), or an α-CD14 neutralizing antibody (4 mg/kg; Clone 4C1, BD Bioscience) was administered immediately preceding each TAA or LPS administration. At the time of sacrifice, blood and liver samples were harvested for analysis. […]

[4] = tested on: macrophages; test: Macrophages treated in vitro (M-CSF, M-CSF blockade, TNF-a blockade), CD14 and cytokine expression; assay type: cell-based, mouse
Description: Murine hepatic NPC were collected as previously (Connolly et al., 2009, The Journal of clinical investigation 119, 3213-3225). Briefly, the portal vein was cannulated and infused with 1% Collagenase IV (Sigma). The liver was then removed, minced, and filtered to obtain single cell suspensions. Hepatocytes were excluded with serial low speed (400 RPM) centrifugation followed by high speed (2000 RPM) centrifugation to isolate the NPC, which were then further enriched over a 40% Optiprep (Sigma) gradient. Human liver NPCs were isolated using a similar protocol as we have described ((Ibrahim et al., 2012, Gastroenterology 143, 1061-1072). Human PBMC were isolated by overlaying whole blood diluted 1:1 in PBS over an equal amount of Ficoll. The cells were then spun at 2100 RPM for 21 min at 20° C. and buffy coat harvested to obtain the PBMC as described ((Rehman et al., 2013, Journal of immunology 190, 4640-4649). Single-cell suspensions of murine splenocytes were isolated by manual disruption of whole spleen and RBC lysis. For HSC isolation, the liver was perfused with 1% Collagenase IV and HSCs were enriched over a 2-layer Nicodenz (Sigma) gradient. HSC were used for experiments on day 14 of culture. […] In vitro proliferation was measured using the XTT cell proliferation kit (Roche). PKC activity was measured using a PKC Kinase Activity Assay Kit (Abcam). […]

CN(C)CCCn1cc(C2=C(c3c[nH]c4ccccc34)C(=O)NC2=O)c2ccccc21 [PKC inhibition, GF109203X]
M-CSF expression in cell culture supernatant [1]: abrogated the higher M-CSF expression

B1: recombinant mIL-22: recombinant IL-22 (R&D) (protein, UniProt Q9JJY9 34-179, looked up)
Interleukin-22: LPVNTRCKLEVSNFQQPYIVNRTFMLAKEASLADNNTDVRLIGEKLFRGVSAKDQCYLMKQVLNFTLEDVLLPQSDRFQPYMQEVVPFLTKLSNQLSSCHISGDDQNIQKNVRRLKETVKKLGESGEIKAIGELDLLFMSLRNACV
rate of hepatic regeneration (BrdU incorporation) [2]: rescued
rate of hepatic regeneration (BrdU incorporation) ([2]; listed as recombinant IL-22): impressively restored; also recorded: rescues

B2: recombinant M-CSF: recombinant murine M-CSF (R&D) (protein, UniProt P07141 33-552, looked up)
Macrophage colony-stimulating …: KEVSEHCSHMIGNGHLKVLQQLIDSQMETSCQIAFEFVDQEQLDDPVCYLKKAFFLVQDIIDETMRFKDNTPNANATERLQELSNNLNSCFTKDYEEQNKACVRTFHETPLQLLEKIKNFFNETKNLLEKDWNIFTKNCNNSFAKCSSRDVVTKPDCNCLYPKATPSSDPASASPHQPPAPSMAPLAGLAWDDSQRTEGSSLLPSELPLRIEDPGSAKQRPPRSTCQTLESTEQPNHGDRLTEDSQPHPSAGGPVPGVEDILESSLGTNWVLEEASGEASEGFLTQEAKFSPSTPVGGSIQAETDRPRALSASPFPKSTEDQKPVDITDRPLTEVNPMRPIGQTQNNTPEKTDGTSTLREDHQEPGSPHIATPNPQRVSNSATPVAQLLLPKSHSWGIVLPLGELEGKRSTRDRRSPAELEGGSASEGAARPVARFNSIPLTDTGHVEQHEGSSDPQIPESVFHLLVPGIILVLLTVGGLLFYKWKWRSHRDPQTLDSSVGRPEDSSLTQDEDRQVELPV
LPS-mediated sepsis (serum IL-6, core body temperature) [3]: exacerbated
MCP-1 and TNF-a expression ([4]; macrophages in vitro, cell-culture supernatant, FIG. 7F): upregulated
CD14 expression ([4]; macrophages treated with recombinant M-CSF, FIG. 7E): increased
